{"source": "paper PMC4000578", "about": "(Molecular microbiology, 2014)", "proteins": {"B1": {"name": "BrlR-His6V5 (Biofilm resistance locus Regulator with a C-terminal His6V5-tag) (natural protein, Pseudomonas aeruginosa PAO1, UniProt Q9HUT5 1-270, looked up)", "chain": "MLTIGQLARIFEISTKTLRHYDAIGLFVPARTGSDNGYRYYQPEQIEQLSRILALRRLDVPLEAIDRLKRDGALDDPQRLRHFLQRHQHTLREEISARQRLLAELDRTLATLAHWRIRNMHARIVERPAFSVVGMEYFGSAPGDTIGQLWERFIPREHEIAGKHDPEVSYGICAQQPNGEFHYVAGFEVQEGWPVPEGMVRFQVPAQKYAVFTHKGTAPQIAESFQAIYSHLLAERGLEPKAGVDFEYYDQRFRGPLDPNSQVDLYIPIY"}}, "biological_target": "the molecule itself", "assay": "cross-linking"}
{"protein": "B1", "values": [{"measurement": "stoichiometry N", "value": 2}]}
